According to paper PMC8985225:

Tests used:
[1] = biological target: Ca^2+/CaM-dependent kinase II α (CaMKIIα) holoenzyme (rodent) (UniProt P11275)
[2] = biological target: Ca^2+/CaM-dependent kinase II β (CaMKIIβ) holoenzyme (rodent) (UniProt P08413)
Chain of UniProt P08413 (P08413 whole entry): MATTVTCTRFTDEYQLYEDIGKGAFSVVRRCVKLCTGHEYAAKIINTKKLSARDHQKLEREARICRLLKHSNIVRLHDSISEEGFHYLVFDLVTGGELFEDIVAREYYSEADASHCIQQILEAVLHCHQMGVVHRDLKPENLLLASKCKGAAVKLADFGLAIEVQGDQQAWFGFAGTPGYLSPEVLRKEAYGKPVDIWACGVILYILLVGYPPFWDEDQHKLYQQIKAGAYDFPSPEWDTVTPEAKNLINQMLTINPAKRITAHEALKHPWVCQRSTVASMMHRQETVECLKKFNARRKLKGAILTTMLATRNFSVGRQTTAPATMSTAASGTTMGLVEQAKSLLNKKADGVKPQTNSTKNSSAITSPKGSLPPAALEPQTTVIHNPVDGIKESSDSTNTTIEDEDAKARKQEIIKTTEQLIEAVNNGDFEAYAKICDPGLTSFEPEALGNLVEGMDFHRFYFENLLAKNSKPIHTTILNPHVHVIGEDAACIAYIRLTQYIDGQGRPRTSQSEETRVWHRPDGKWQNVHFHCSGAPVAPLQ

Chain of UniProt P11275 (P11275 whole entry): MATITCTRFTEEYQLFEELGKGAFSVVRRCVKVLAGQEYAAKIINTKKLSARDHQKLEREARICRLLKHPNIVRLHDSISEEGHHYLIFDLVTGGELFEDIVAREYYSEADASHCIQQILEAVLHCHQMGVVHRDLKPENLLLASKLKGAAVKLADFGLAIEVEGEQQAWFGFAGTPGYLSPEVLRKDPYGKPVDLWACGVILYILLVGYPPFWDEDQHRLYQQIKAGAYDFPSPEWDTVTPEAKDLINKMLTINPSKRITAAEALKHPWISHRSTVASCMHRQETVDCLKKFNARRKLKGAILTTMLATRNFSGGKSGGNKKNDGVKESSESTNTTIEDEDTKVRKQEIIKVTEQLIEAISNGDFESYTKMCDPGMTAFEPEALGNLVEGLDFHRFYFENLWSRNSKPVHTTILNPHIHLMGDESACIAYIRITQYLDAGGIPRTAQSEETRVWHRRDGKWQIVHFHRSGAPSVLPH

EC50 of CaM for in vitro CaMKII kinase activity (phosphorylation of syntide-2; 0.6 nM to 6 μM CaM) [1]: 30.1 nM
EC50 of CaM for in vitro CaMKII kinase activity (phosphorylation of syntide-2; 0.6 nM to 6 μM CaM) [2]: 14.6 nM
Substance: Calmodulin (from UniProt P0DP23 1-149) (natural protein)
